Data on one protein can be found in US20160053258.

Substitutions are numbered along the chain they refer to.

Data set [1] has as its target T1, 6×HIS-LIN28A (1-124), Q9H9Z2.
T1 chain: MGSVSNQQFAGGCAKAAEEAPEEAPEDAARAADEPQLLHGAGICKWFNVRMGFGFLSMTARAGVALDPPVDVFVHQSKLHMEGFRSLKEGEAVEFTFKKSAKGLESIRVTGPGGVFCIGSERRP

Data set [2] addresses T2, 6×HIS-LIN28A (125-156), Q9H9Z2.
T2 chain: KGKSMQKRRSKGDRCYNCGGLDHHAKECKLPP

Data set [3] deals with T3, 6×HIS-LIN28A (125-209), Q9H9Z2.
T3 chain: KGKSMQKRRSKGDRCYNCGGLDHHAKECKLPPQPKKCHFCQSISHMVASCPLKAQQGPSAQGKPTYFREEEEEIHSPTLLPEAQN

Data set [4] concerns the target T4, 6×HIS-LIN28A (157-209), Q9H9Z2.
T4 chain: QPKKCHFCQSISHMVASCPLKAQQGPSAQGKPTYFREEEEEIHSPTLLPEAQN

The target of data set [5] is T5, 6×HIS-LIN28A-K135R, Q9H9Z2.
T5 chain: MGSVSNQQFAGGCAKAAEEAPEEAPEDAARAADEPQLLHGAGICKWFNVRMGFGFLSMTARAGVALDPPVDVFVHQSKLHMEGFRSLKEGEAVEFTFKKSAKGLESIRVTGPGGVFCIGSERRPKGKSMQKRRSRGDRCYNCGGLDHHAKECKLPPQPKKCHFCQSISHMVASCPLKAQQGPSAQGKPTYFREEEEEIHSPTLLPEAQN

The target in data set [6] is T6, 6×HIS-labeled human LIN28A (full-length), Q9H9Z2.
T6 chain: T5 chain with R135K

In data set [7] the target is T7, full-length 6×HIS-LIN28B, Q6ZN17.
T7 chain: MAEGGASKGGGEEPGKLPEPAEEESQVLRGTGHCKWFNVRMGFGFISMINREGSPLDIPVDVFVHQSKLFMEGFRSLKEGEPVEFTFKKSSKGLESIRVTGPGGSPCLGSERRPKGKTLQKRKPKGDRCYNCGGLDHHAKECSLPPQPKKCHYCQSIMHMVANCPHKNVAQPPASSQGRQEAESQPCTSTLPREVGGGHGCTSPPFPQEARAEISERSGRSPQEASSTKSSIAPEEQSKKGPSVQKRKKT

B1: recombinant full-length SET7/9 expressed in bacteria (protein)
chain: MDSDDEMVEEAVEGHLDDDGLPHGFCTVTYSSTDRFEGNFVHGEKNGRGKFFFFDGSTLEGYYVDDALQGQGVYTYEDGGVLQGTYVDGELNGPAQEYDTDGRLIFKGQYKDNIRHGVCWIYYPDGGSLVGEVNEDGEMTGEKIAYVYPDERTALYGKFIDGEMIEGKLATLMSTEEGRPHFELMPGNSVYHFDKSTSSCISTNALLPDPYESERVYVAESLISSAGEGLFSKVAVGPNTVMSFYNGVRITHQEVDSRDWALNGNTLSLDEETVIDVPEPYNHVSKYCASLGHKANHSFTPNCIYDMFVHPRFGPIKCIRTLRAVEADEELTVAYGYDHSPPGKSGPEAPEWYQVELKAFQATQQK
For the protein B1, the “methylation (in vitro methyl transferase assay)” value was “LIN28A (1-124) and (157-209) without lysine 135 were not methylated” in data set [1]; “only LIN28A (125-209) and (125-156) having lysine 135 among 4 fragments were methylated by SET7/9” in data set [2]; “only LIN28A (125-209) and (125-156) having lysine 135 among 4 fragments were methylated by SET7/9” in data set [3]; “LIN28A (1-124) and (157-209) without lysine 135 were not methylated” in data set [4]; “a methylation reaction by SET7/9 was completely removed in K135 mutant” in data set [5]. In addition, in data set [6], the “enzyme activity (in vitro methyltransferase assay with [3H] SAM)” value is “all HMTases except for SET7/9 did not show enzyme activity with respect to LIN28A”. In addition, the “methylation (in vitro methyltransferase assay with [3H] SAM)” value in data set [6] is on record as “LIN28A was methylated by SET7/9 in vitro”. Further, the “methylation (in vitro methyl transferase analysis)” value in data set [7] is listed as “LIN28B was not methylated by SET7/9”.
